This data set deals with MS2 coat protein. Description: apparent KD of MS2 coat protein; higher = weaker reporter binding. To be noted: Eterna round: R107. The gist of the method:
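Values are apparent KD, taken as the median for each design of fits to normalised binding curves from individual clusters. The designed RNA switches were transcribed on-chip from Illumina sequencing clusters and exposed to SNAP-549-labelled MS2 coat protein at twofold increasing amounts from 0.7 or 1.5 nM to 3 µM. Titration used 100 mM Tris-HCl pH 7.5, 80 mM KCl and 4 mM MgCl2, without or with constant ligand.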

[1] abbreviates: input ligand: theophylline 20 uM.
Where [2] appears, read: input ligand: tryptophan 2.4 mM.
Where [3] appears, read: input ligand: theophylline 2 mM.

Consider 16 sequences from the supplement of paper PMC9170038.

Turning to “GCAUUACAUGAGGAUCACCCAUGUCUAGAUACCAGAUUUGUUUGAAUCCCUUGGCAGCUAGUGGACCACCGUACACGACAUACUA [theeternabot_sameState_MS2_Theo_A_17]”, the “apparent KD of MS2 coat protein” value runs as follows: (input ligand: arginine 13.2 mM) 29.8 nM; under setting [1], 47.1 nM; under setting [2], 44 nM.

With “GCCAAAGGCUACAUGAGGAUCACCCAUGUACGAGGACCGGUACGGCCGCCACUCGUACGGCCUCCUACUGGACGGGAAACCGUCG [ETA NP+V+V2 #28]”, the “apparent KD of MS2 coat protein” value was determined as 13.1 nM (input ligand: arginine 13.2 mM); 20.6 nM (input ligand: none); 34.1 nM under setting [1]; 28 nM under setting [3]; 33.2 nM under setting [2].

Consider “GCCGCCGGUGCUUCAUUCCCUGAGCGACGGCGAGGACCGGUACGGCCGCCACUCGGCUCGGUACAUGAGGAUCACCCAUGUCUUU [theeternabot_exclusion_MS2_Trp_A_11]”, for which the “apparent KD of MS2 coat protein” value runs as follows: (input ligand: arginine 13.2 mM) 30.7 nM; under setting [1], 58.4 nM; under setting [3], 60.8 nM.

Take “GCCGGACUUUCGGCCGCCACUGAGAGAGUCGUGUGAACAUGAGGAUCACCCAUGUAAUAUAUAUACAGGACCGGGAGGGUCCGGC [4.T]”: the “apparent KD of MS2 coat protein” value is, setting by setting: (input ligand: arginine 13.2 mM) 12.3 nM; (input ligand: none) 12.1 nM; under setting [1], 18.3 nM; under setting [3], 12.7 nM; under setting [2], 10.2 nM.

Regarding “GCUACAUGAGGAUCACCCAUGUAUGCGAGCCGAGGACCGGUACGGCCGCCACUCGCUUAACAUGAGGAUCACCCAUGUUGCUCGC [SSTA DOUBLE!!! :-D #18]”, the “apparent KD of MS2 coat protein” value is, setting by setting: (input ligand: arginine 13.2 mM) 19.7 nM; under setting [1], 36.2 nM; under setting [3], 28.1 nM.

In the case of “GCUAGGUCAUCGGCCGCCACUAACGAUGGCUCCGACAUGAGGAUCACCCAUGUGCCACUUGCGCAUAGGACCGGGAUGACCUAGC [SSTB NP+V+V2 #1]”, the “apparent KD of MS2 coat protein” value was found to be 17.7 nM (input ligand: arginine 13.2 mM); 15 nM (input ligand: none); 24.3 nM under setting [1]; 17.2 nM under setting [3]; 11.5 nM under setting [2].

“GCUGAACAUGAGGAUCACCCAUGUCCGGAUACCAGCGGACCUCAUCGCCCUUGGCAGCCGAACCAACAGCUUGUGGUGUUCACUC [theeternabot_sameState_MS2_Theo_A_10]”: the “apparent KD of MS2 coat protein” value amounted to 32.2 nM (input ligand: arginine 13.2 mM), 58.2 nM under setting [1] and 37.2 nM under setting [2].

For the sequence “GCUGUAAGUGCAGAUACCAGCAUGUUAUAUUUCUAAUGACAUGAGGAUCACCCAUGUAAAUGCCCUUGGCAGCUGCACUUACAGC [SSTHB #6]”, the “apparent KD of MS2 coat protein” value (input ligand: arginine 13.2 mM) stood at 15.6 nM, the “apparent KD of MS2 coat protein” value under setting [1] was determined as 21.4 nM and the “apparent KD of MS2 coat protein” value under setting [2] turned out to be 18.7 nM.

As to “GCUGUACCAUGAAGGAGCGUCGUUGAUUGAGAAUACACAUGAGGAUCACCCAUGUUUUUAUGACAGGUAGGUCGCAUGGUACAGC [SSAB #16]”, the “apparent KD of MS2 coat protein” value by setting is: (input ligand: arginine 13.2 mM) 13.8 nM; (input ligand: none) 12.9 nM; under setting [1], 25.1 nM; under setting [3], 18.9 nM; under setting [2], 12.1 nM.

For the sequence “GCUUGGGUGGCACAGCACUGGCAGUGCGAUACCAGCACGGUAACGUGCCCUUGGCAGCGCACAUGAGGAUCACCCAUGUGGUGCG [#1 Exclusion - Theophylline A Attempt #26 (HarryS)]”, the “apparent KD of MS2 coat protein” value by setting is: (input ligand: arginine 13.2 mM) 18.8 nM; (input ligand: none) 24.4 nM; under setting [1], 66.9 nM; under setting [3], 275 nM; under setting [2], 26 nM.

“GCUUGGGUGGCACGGCCCUGGCGGUGCGAUACCAGCACGGUAACGUGCCCUUGGCAGCGCACAUGAGGAUCACCCAUGUGGUGCG [#1 Exclusion - Theophylline A Attempt #24 (HarryS)]”: the “apparent KD of MS2 coat protein” value stood at 13.1 nM (input ligand: arginine 13.2 mM); 15.6 nM (input ligand: none); 21.9 nM under setting [1]; 185 nM under setting [3]; 13.7 nM under setting [2].

Regarding “GGACCAUGGAGCGAUACCAGCUUGAGUGUACUGGCCAGGUACAUGAGGAUCACCCAUGUAAGCCCUUGGCAGCGCUCCAUGGUCC [#1 Exclusion - Theophylline B Attempt #25 (HarryS)]”, the “apparent KD of MS2 coat protein” value (input ligand: arginine 13.2 mM) stood at 8.38 nM; the “apparent KD of MS2 coat protein” value (input ligand: none) was found to be 9.95 nM; the “apparent KD of MS2 coat protein” value under setting [1] was 14.7 nM; the “apparent KD of MS2 coat protein” value under setting [3] came to 30.8 nM; the “apparent KD of MS2 coat protein” value under setting [2] was 12.3 nM.

Consider “GGACUAACCUGAAGGAGCGACGCGCAGAAACUGCAAUUUCCUCCACACGAGGAUCACCCGUGUCAGGUAGGUCGCAGGUUAGUCG [ArgBX 29]”, for which the “apparent KD of MS2 coat protein” value (input ligand: arginine 13.2 mM) is 13.1 nM; the “apparent KD of MS2 coat protein” value (input ligand: none) was found to be 14.1 nM; the “apparent KD of MS2 coat protein” value under setting [1] is 18.3 nM; the “apparent KD of MS2 coat protein” value under setting [3] was 15.4 nM; the “apparent KD of MS2 coat protein” value under setting [2] turned out to be 15.3 nM.

“GGACUAACUGGAAGGAGCGACACGCAGAAACUGCAAUUUCCUCCACACGAGGAUCACCCGUGUCAGGUAGGUCGCCAGUUAGUCG [ArgBX 29]”: the “apparent KD of MS2 coat protein” value stood at 31.3 nM (input ligand: arginine 13.2 mM); 39.1 nM (input ligand: none); 52 nM under setting [1]; 57 nM under setting [3]; 40.9 nM under setting [2].

As for “GGAGGUACCCGAAGGAGCGACAUGAGGAUCACCCAUGUCUCCCGUUAUGGGAGUUCCUUAGGUCAGGUAGGUCGCGGGUACCUCC [#1 Exclusion - Arginine B Attempt #1 (Inspired by Omei)]”, the “apparent KD of MS2 coat protein” value is, setting by setting: (input ligand: arginine 13.2 mM) 92.7 nM; (input ligand: none) 124 nM; under setting [1], 162 nM; under setting [3], 128 nM; under setting [2], 109 nM.

In the case of “GGAGUAGGAAACUAUUCCAAUCCUCGUGAACGAGGACCGGUACGGCCGCCACUCGAUAAAUAAAUACAUGAGGAUCACCCAUGUU [Ex Tryptophan A 23]”, the “apparent KD of MS2 coat protein” value came out at 38 nM (input ligand: arginine 13.2 mM), 71.4 nM under setting [1] and 82.1 nM under setting [3].
